# Results taken from patent US20060003400A1, “Methods and compositions for characterizing a redox reagent system enzyme” (priority 2004, published 2006).
# Tests used:
# Type in all cases: biochemical
# [1] = DCIP/PES spectrophotometric assay (enzyme-limiting conditions); conditions: same range of sugar concentrations; results not shown
# Method: (§1) In order to develop an assay for screening mutant forms of s-GDH with varying sugar specificities, the response of wild type and mutant forms of s-GDH with reducing sugars first were tested in a conventional enzyme-coated glucose test strip format. The screening assay ideally mimics the response shown with conventionally enzyme-coated strips tested with whole blood or plasma spiked with a reducing sugar. The mutant forms of s-GDH tested contained one amino acid substitution each: Asn452Thr and Asp167Glu. The test strips were made by a web-based process in which the working electrode (gold) was slot coated with a buffered reagent solution containing approximately 50 to 500 kU/ml wild type or mutant s-GDH, PQQ at a 2 to 1 mole ratio of PQQ to GDH, 2 mM CaCl2, 750 mM ferricyanide, 67 mM citraconate at pH 6.8, 0.1% pluronics and 75 mM sucrose. […] In the assay, change in the absorbance of DCIP at 600 nm was monitored and the decreasing rate of absorbance was referred to as the reaction rate of the enzyme. […]
# (§2) Plasma with about 80 mg/dL (or 4.4 mM) endogenous glucose was spiked with up to 40 mM each of five reducing sugars: glucose, maltose, xylose, galactose and lactose. The spiked samples were dosed onto the above test strips and glucose concentration was determined by chronoamperometry as above. […]
# [2] = Enzyme/sugar solution dosed onto enzyme-free electrochemical cell (process of the invention), current response; conditions: FIGS. 6-8; for Current response to xylose compared with glucose: xylose less than 10 mM, about 13 activity units per cell; for Current response to all reducing sugars tested: sugars up to about 40 mM
# Method: The response of wild-type s-GDH to reducing sugars was measured using electrochemical cells (i.e., test strips) made by a web-based process in which the working electrode (gold) was slot coated with a buffered reagent solution containing 750 mM ferricyanide, 67 mM citraconate at pH 6.8, 0.1% pluronics and 75 mM sucrose. As in Example 1, an IR energy source was used to dry the reagent onto the working electrode. Electrochemical cells were formed by adhering the working electrode with dried reagent to a gold counter electrode containing dried MESA to prevent fouling of the counter electrode.
# Wild-type s-GDH in 67 mM citraconate at pH 6.8 with PQQ at a 2 to 1 mole ratio of PQQ to GDH and 2 mM CaCl2 was mixed with physiologically relevant concentrations (up to about 40 mM or 720 mg/dL) of one of the following sugars: glucose, xylose, galactose, maltose, or lactose. The concentration of the wild type s-GDH in each solution was adjusted such that approximately 13 activity units per electrochemical cell were used. Each enzyme/sugar-containing solution was dosed onto an electrochemical cell containing dried ferricyanide, citraconate, Pluronics and sucrose but no enzyme (see above for concentrations). The current response was measured and the average of three determinations was graphed as a function of sugar concentration, as shown in FIG. 6.
# The response of Asn452Thr to reducing sugars was measured using the same lot of electrochemical cells as described in Example 2 above (i.e., with cells containing dried ferricyanide, citraconate, Pluronics and sucrose but no enzyme). Asn452Thr was mixed with physiologically relevant concentrations (up to about 40 mM or 720 mg/dL) of one of the following sugars: glucose, xylose, galactose, maltose, or lactose. The concentration of Asn452Thr in each solution was adjusted such that approximately 13 activity units per electrochemical cell were used. Each enzyme/sugar-containing solution was dosed onto an electrochemical cell containing dried ferricyanide, citraconate, Pluronics and sucrose but no enzyme. […] Thus, the assay mimics the results obtained with Asn452Thr-coated strips with the advantages discussed above.
# The response of Asp167Glu to reducing sugars was measured as described in Example 3 above. Asp167Glu was mixed with physiologically relevant concentrations (up to about 40 mM or 720 mg/dL) of one of the following sugars: glucose, xylose, galactose, maltose, or lactose; and dosed onto an electrochemical cell containing dried ferricyanide, citraconate, Pluronics and sucrose but no enzyme. […] Thus, again, the assay beneficially mimics the results obtained with Asp167Glu-coated strips but in a quick and easy-to-use format.
# [3] = Conventional wild type s-GDH-coated test strips dosed with plasma spiked with reducing sugars, chronoamperometry; conditions: plasma spiked with up to 40 mM of five reducing sugars; at less than about 10 mM; FIG. 5
# Method: as §1, §2
# [4] = Conventional enzyme-coated test strips dosed with whole blood spiked with interfering sugar, chronoamperometry; conditions: whole blood about 80 mg/dL glucose spiked with about 4 mM or 12 mM xylose; FIG. 4
# Method: In order to develop an assay for screening mutant forms of s-GDH with varying sugar specificities, the response of wild type and mutant forms of s-GDH with reducing sugars first were tested in a conventional enzyme-coated glucose test strip format. The screening assay ideally mimics the response shown with conventionally enzyme-coated strips tested with whole blood or plasma spiked with a reducing sugar. The mutant forms of s-GDH tested contained one amino acid substitution each: Asn452Thr and Asp167Glu. The test strips were made by a web-based process in which the working electrode (gold) was slot coated with a buffered reagent solution containing approximately 50 to 500 kU/ml wild type or mutant s-GDH, PQQ at a 2 to 1 mole ratio of PQQ to GDH, 2 mM CaCl2, 750 mM ferricyanide, 67 mM citraconate at pH 6.8, 0.1% pluronics and 75 mM sucrose. […] The activity of each enzyme was based on a spectrophotometric assay using DCIP (2,6-Dichlorophenolindophenol) and PES (Phenazine Ethosulfate) in 50 mM PIPES (Piperazine, N,N′bis-(2-ethanesulfonic acid)) buffer at pH 6.8. In the assay, change in the absorbance of DCIP at 600 nm was monitored and the decreasing rate of absorbance was referred to as the reaction rate of the enzyme. The enzyme activity by which […] of DCIP was reduced in one minute was defined as 1 Unit. The molar absorption coefficient of DCIP at pH 6.8 was 17.4 mM-1. A COBAS FARA II centrifugal analyzer was used for the spectrophotometric assay. […]
# Whole blood at about 80 mg/dL (or 4.4 mM) of endogenous glucose was spiked with either a high therapeutic level (about 60 mg/dL or 4 mM) or three times a high therapeutic level (about 180 mg/dL or 12 mM) of the interfering sugar xylose. The spiked samples were dosed onto the above test strips and glucose concentration was determined by chronoamperometry in which a potential of −0.3 V was applied for 10 seconds, followed by applying a potential of +0.3 V for 5 seconds. Absolute bias to a control sample with no xylose was calculated for each enzyme and was expressed as a function of xylose concentration, as shown in FIG. 4.
Molecule,Reactivity with xylose and galactose [1],Current response to xylose compared with glucose [2],Current response as a function of sugar concentration [3],Absolute bias to a control sample with no xylose as a function of xylose concentration [4],Current response to all reducing sugars tested [2]
"wild-type s-GDH: soluble form of pyrroloquinoline quinone (PQQ)-dependent glucose dehydrogenase, naturally occurring (protein, UniProt P13650 25-478, looked up) Quinoprotein glucose …: DVPLTPSQFAKAKSENFDKKVILSNLNKPHALLWGPDNQIWLTERATGKILRVNPESGSVKTVFQVPEIVNDADGQNGLLGFAFHPDFKNNPYIYISGTFKNPKSTDKELPNQTIIRRYTYNKSTDTLEKPVDLLAGLPSSKDHQSGRLVIGPDQKIYYTIGDQGRNQLAYLFLPNQAQHTPTQQELNGKDYHTYMGKVLRLNLDGSIPKDNPSFNGVVSHIYTLGHRNPQGLAFTPNGKLLQSEQGPNSDDEINLIVKGGNYGWPNVAGYKDDSGYAYANYSAAANKSIKDLAQNGVKVAAGVPVTKESEWTGKNFVPPLKTLYTVQDTYNYNDPTCGEMTYICWPTVAPSSAYVYKGGKKAITGWENTLLVPSLKRGVIFRIKLDPTYSTTYDDAVPMFKSNNRYRDVIASPDGNVLYVLTDTAGNVQKDDGSVTNTLENPGSLIKFTYKAK",low reactivity with xylose and galactose,reacted equally well with glucose and xylose,reacts equally well with each of the five reducing sugars tested,linear correlation,–
"Asn452Thr: mutant form of s-GDH with one amino acid substitution, Asn452Thr (protein, UniProt P13650 25-478, looked up, variant N452T) Quinoprotein glucose …: DVPLTPSQFAKAKSENFDKKVILSNLNKPHALLWGPDNQIWLTERATGKILRVNPESGSVKTVFQVPEIVNDADGQNGLLGFAFHPDFKNNPYIYISGTFKNPKSTDKELPNQTIIRRYTYNKSTDTLEKPVDLLAGLPSSKDHQSGRLVIGPDQKIYYTIGDQGRNQLAYLFLPNQAQHTPTQQELNGKDYHTYMGKVLRLNLDGSIPKDNPSFNGVVSHIYTLGHRNPQGLAFTPNGKLLQSEQGPNSDDEINLIVKGGNYGWPNVAGYKDDSGYAYANYSAAANKSIKDLAQNGVKVAAGVPVTKESEWTGKNFVPPLKTLYTVQDTYNYNDPTCGEMTYICWPTVAPSSAYVYKGGKKAITGWENTLLVPSLKRGVIFRIKLDPTYSTTYDDAVPMFKSNNRYRDVIASPDGNVLYVLTDTAGTVQKDDGSVTNTLENPGSLIKFTYKAK",–,reacts equally well with glucose and xylose,–,linear correlation,reacts equally well with all the sugars tested at less than 10 mM sugar
"Asp167Glu: mutant form of s-GDH with one amino acid substitution, Asp167Glu (protein, UniProt P13650 25-478, looked up, variant D167E) Quinoprotein glucose …: DVPLTPSQFAKAKSENFDKKVILSNLNKPHALLWGPDNQIWLTERATGKILRVNPESGSVKTVFQVPEIVNDADGQNGLLGFAFHPDFKNNPYIYISGTFKNPKSTDKELPNQTIIRRYTYNKSTDTLEKPVDLLAGLPSSKEHQSGRLVIGPDQKIYYTIGDQGRNQLAYLFLPNQAQHTPTQQELNGKDYHTYMGKVLRLNLDGSIPKDNPSFNGVVSHIYTLGHRNPQGLAFTPNGKLLQSEQGPNSDDEINLIVKGGNYGWPNVAGYKDDSGYAYANYSAAANKSIKDLAQNGVKVAAGVPVTKESEWTGKNFVPPLKTLYTVQDTYNYNDPTCGEMTYICWPTVAPSSAYVYKGGKKAITGWENTLLVPSLKRGVIFRIKLDPTYSTTYDDAVPMFKSNNRYRDVIASPDGNVLYVLTDTAGNVQKDDGSVTNTLENPGSLIKFTYKAK",–,reduced response to xylose,–,reduced response with xylose,reacts equally well with all the other reducing sugars tested
